Results on 1 protein are retold here after article PMC5344670, “Cryo-EM structure of the ATP-sensitive potassium channel illuminates mechanisms of assembly and gating” (eLife, 2017).

This data set deals with the molecule itself. The data set is described as follows: cryo-EM structure; digitonin-solubilised KATP channel complex in the presence of 1 mM ATP and 1 µM glibenclamide; single-particle analysis with C4 symmetry imposed.

In general, stoichiometry N refers to the number of molecules, sites or subunits per partner or assembly.

B1: rat Kir6.2 (natural protein)
chain: MLSRKGIIPEEYVLTRLAEDPTEPRYRTRERRARFVSKKGNCNVAHKNIREQGRFLQDVFTTLVDLKWPHTLLIFTMSFLCSWLLFAMVWWLIAFAHGDLAPGEGTNVPCVTSIHSFSSAFLFSIEVQVTIGFGGRMVTEECPLAILILIVQNIVGLMINAIMLGCIFMKTAQAHRRAETLIFSKHAVITLRHGRLCFMLRVGDLRKSMIISATIHMQVVRKTTSPEGEVVPLHQVDIPMENGVGGNSIFLVAPLIIYHVIDSNSPLYDLAPSDLHHHQDLEIIVILEGVVETTGITTQARTSYLADEILWGQRFVPIVAEEDGRYSVDYSKFGNTVKVPTPLCTARQLDEDRSLLDALTLASSRGPLRKRSVAVAKAKPKFSISPDSLS
notes: Kir6.2, rat, inwardly rectifying K+ channel family; the final model holds residues 32-356; The eLife digest calls it the mouse form; results and methods say rat; source: INS-1 cells clone 832/13 (rat insulinoma), co-infected with recombinant adenoviruses; purified with f-SUR1 (digitonin, anti-FLAG M2 agarose, FLAG peptide elution, size exclusion chromatography)
With B1, the “stoichiometry N” value is 4.
